The target of experiment [1] is COV2-RBD (rpk9) B.1.1.529 R346K (BA.1.1) (SARS-CoV-2).
Experiment [2] addresses SARS-CoV-2 spike (S) glycoprotein, D614G (SARS-CoV-2) (UniProt P0DTC2). Description: cell-based or functional assay.

Where “and” joins values, the source holds several entries; their conditions need not be identical. Equal entries are not always repeated.

As usually defined, the EC50 is the concentration needed to bring the measured effect to its halfway point. A lower EC50 goes with an effect from little substance. Turning to COV2-2130 (antibody), the EC50 in experiment [1] was 4.13 µg/mL and 3.54 µg/mL.

In the case of rS2K146 (antibody), the normalized pseudoneutralization IC50 in experiment [2] was 0.00656 µg/mL.

The values are drawn from patent US20230365658A1.
